In publication PMC6468047, “Cannabinoid CB1 and CB2 Receptor-Mediated Arrestin Translocation: Species, Subtype, and Agonist-Dependence” (Frontiers in Pharmacology, 2019):
Where two headings read alike, the source gives them in different places.

Legend:
CB2 (hCB2) [1] = target: T1, CB2 (hCB2) (Homo sapiens, UniProt P34972); assay: BRET human β-arrestin-2 plasma membrane translocation; format: cell-based; details: read-out: CB2 / logEC50 ± SEM (converted)
T1 construct: gene CNR2; 3HA-hCB2 in pEF4a: N-terminal 3xHA tag, untagged C-terminus; transient in HEK-293 with Rluc8-arrestin and mem-linker-Citrine reporters
T1 sequence (P34972 whole entry): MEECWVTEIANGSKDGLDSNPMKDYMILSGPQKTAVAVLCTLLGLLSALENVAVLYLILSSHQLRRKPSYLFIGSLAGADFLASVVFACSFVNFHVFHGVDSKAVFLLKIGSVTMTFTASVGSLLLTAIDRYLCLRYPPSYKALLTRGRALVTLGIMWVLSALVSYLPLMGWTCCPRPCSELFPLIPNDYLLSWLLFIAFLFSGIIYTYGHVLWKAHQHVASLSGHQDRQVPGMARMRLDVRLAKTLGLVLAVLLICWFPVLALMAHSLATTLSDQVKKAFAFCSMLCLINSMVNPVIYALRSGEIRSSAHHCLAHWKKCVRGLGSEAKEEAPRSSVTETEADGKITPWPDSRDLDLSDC

CB2 (hCB2) [2] = target: T1, CB2 (hCB2); assay: BRET human β-arrestin-1 plasma membrane translocation; format: cell-based; details: 10 µM; HEK-293, 37 °C, single concentration 10 μM, no GRK2 co-expression
Description: BRET human β-arrestin-1 plasma membrane translocation on CB2 (hCB2)

[3] = target: human D2 dopamine receptor (3HA-hD2R) (human) (UniProt P14416)
Sequence of human D2 dopamine receptor (3HA-hD2R) (human) (P14416 whole entry): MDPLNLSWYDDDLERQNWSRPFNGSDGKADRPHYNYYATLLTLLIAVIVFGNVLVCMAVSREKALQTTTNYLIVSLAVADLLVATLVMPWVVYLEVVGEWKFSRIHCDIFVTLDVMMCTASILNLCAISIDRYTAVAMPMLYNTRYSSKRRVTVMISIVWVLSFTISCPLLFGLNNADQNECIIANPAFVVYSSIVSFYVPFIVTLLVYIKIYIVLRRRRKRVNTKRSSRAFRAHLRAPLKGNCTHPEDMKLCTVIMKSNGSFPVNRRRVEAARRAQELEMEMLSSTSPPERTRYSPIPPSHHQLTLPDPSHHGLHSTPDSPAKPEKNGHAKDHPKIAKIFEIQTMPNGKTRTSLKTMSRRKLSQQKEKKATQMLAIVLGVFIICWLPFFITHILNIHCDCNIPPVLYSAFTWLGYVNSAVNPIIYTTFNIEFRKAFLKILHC

[4] = target: human vasopressin receptor 2 (3HA-hV2R) (human) (UniProt P30518)
[5] = target: human cannabinoid receptor 1 (pplss-3HA-hCB1) (human) (UniProt P21554)
Sequence of human cannabinoid receptor 1 (pplss-3HA-hCB1) (human) (P21554 whole entry): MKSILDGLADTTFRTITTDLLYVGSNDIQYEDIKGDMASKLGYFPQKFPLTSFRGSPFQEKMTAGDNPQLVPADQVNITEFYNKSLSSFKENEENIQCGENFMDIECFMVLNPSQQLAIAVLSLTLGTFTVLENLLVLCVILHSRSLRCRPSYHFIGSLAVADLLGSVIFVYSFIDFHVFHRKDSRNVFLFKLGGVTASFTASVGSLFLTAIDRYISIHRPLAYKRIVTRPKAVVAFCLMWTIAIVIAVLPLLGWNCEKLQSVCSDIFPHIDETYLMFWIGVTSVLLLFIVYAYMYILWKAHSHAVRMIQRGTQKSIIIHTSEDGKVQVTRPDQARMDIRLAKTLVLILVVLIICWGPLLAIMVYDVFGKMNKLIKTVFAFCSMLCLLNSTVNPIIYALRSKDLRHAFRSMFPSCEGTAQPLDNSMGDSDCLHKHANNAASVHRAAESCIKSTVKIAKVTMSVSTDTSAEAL

[6] = target: human cannabinoid receptor 2 (3HA-hCB2) (human) (UniProt P34972)
Sequence of human cannabinoid receptor 2 (3HA-hCB2) (human) (P34972 whole entry): as the sequence (P34972 whole entry) above

[7] = target: human vasopressin receptor 2 (3HA-hV2R) (human) (UniProt P30518); remark: listed apart in the source
[8] = target: human cannabinoid receptor 1 (pplss-3HA-hCB1) (human) (UniProt P21554); remark: listed apart in the source
[9] = target: human cannabinoid receptor 2 (3HA-hCB2) (human) (UniProt P34972); remark: listed apart in the source
[10] = target: human D2 dopamine receptor (3HA-hD2R) (human) (UniProt P14416); remark: listed apart in the source
[11] = target: human vasopressin receptor 2 (3HA-hV2R) (human) (UniProt P30518); remark: listed apart in the source
[12] = target: human cannabinoid receptor 1 (pplss-3HA-hCB1) (human) (UniProt P21554); remark: listed apart in the source
[13] = target: human cannabinoid receptor 2 (3HA-hCB2) (human) (UniProt P34972); remark: listed apart in the source
[14] = target: human D2 dopamine receptor (3HA-hD2R) (human) (UniProt P14416); remark: listed apart in the source
[15] = target: human vasopressin receptor 2 (3HA-hV2R) (human) (UniProt P30518); remark: listed apart in the source
[16] = target: human cannabinoid receptor 1 (pplss-3HA-hCB1) (human) (UniProt P21554); remark: listed apart in the source
[17] = target: human cannabinoid receptor 2 (3HA-hCB2) (human) (UniProt P34972); remark: listed apart in the source

Sequence of bovine β-arrestin-1 (Rluc8-bβ-arrestin-1-Sp1) (P17870 whole entry): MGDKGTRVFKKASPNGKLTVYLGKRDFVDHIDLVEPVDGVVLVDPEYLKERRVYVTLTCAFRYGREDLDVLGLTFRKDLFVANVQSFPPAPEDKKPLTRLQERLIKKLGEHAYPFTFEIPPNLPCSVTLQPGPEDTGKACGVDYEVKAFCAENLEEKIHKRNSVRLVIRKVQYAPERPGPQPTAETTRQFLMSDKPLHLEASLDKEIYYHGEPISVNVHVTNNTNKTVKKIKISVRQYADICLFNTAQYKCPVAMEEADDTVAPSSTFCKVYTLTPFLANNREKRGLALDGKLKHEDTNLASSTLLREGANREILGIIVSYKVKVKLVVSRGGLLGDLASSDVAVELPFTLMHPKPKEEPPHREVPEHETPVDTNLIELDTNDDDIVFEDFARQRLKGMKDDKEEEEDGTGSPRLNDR
Sequence of human β-arrestin-2 (Rluc8-hβ-arrestin-2-Sp1) (P32121 whole entry): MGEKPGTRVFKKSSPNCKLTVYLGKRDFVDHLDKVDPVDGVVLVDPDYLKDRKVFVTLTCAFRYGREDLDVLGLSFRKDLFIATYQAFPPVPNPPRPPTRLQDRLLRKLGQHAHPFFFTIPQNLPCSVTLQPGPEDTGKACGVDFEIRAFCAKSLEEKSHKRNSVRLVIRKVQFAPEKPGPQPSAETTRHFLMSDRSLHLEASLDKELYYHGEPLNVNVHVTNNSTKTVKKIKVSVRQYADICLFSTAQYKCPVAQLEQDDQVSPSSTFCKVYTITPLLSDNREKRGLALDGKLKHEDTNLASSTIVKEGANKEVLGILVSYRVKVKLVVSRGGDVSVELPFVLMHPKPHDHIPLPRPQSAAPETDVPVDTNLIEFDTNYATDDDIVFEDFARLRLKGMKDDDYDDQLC
Sequence of human β-arrestin-1 (Rluc8-hβ-arrestin-1-Sp1) (P49407 whole entry): as the sequence (P17870 whole entry) above, with E35D, H368N, R414Q, D417N counted along it
Sequence of bovine β-arrestin-2 (Rluc8-bβ-arrestin-2-Sp1) (P32120 whole entry): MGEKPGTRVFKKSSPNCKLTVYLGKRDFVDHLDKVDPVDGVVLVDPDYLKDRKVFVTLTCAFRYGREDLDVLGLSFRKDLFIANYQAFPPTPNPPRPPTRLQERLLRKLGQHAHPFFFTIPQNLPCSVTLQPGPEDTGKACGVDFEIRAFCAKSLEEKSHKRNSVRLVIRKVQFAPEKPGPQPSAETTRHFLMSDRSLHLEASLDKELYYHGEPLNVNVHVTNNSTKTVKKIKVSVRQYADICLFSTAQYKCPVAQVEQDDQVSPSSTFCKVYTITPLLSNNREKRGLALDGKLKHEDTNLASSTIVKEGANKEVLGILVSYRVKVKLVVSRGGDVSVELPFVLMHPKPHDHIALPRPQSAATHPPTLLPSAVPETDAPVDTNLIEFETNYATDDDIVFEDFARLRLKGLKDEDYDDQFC

## CCCCC/C=C\C/C=C\C/C=C\C/C=C\CCCC(=O)OC(CO)CO [2-AG]
CB2 (hCB2) [1]
  EC50: 1860 nM

## CCCCCc1cc(O)c2c(c1)OC(C)(C)[C@@H]1CCC(C)=C[C@@H]21 [THC]
CB2 (hCB2) [2]
  CB2 / Response ± SEM (ΔBRET.sec): 14.4 ± 2.8 ΔBRET.sec

## bovine β-arrestin-1 (Rluc8-bβ-arrestin-1-Sp1) (from UniProt P17870 1-418) (natural protein)
[3]
  Response, arrestin translocation to the plasma membrane (BRET, AUC of 25 min); 10 μM dopamine: 23.4 ΔBRET.sec
  Response, arrestin translocation to the plasma membrane (BRET, AUC of 25 min); 10 μM dopamine; GRK2 co-expressed: 95 ΔBRET.sec
[4]
  Emax, arrestin translocation to the plasma membrane (BRET, AUC of 25 min); agonist AVP: 177 ΔBRET.sec
[5]
  Response, arrestin translocation to the plasma membrane (BRET, AUC of 25 min); 1 μM CP55,940 (significantly different from vehicle): 20.8 ΔBRET.sec
  Response, arrestin translocation to the plasma membrane (BRET, AUC of 25 min); 1 μM CP55,940; GRK2 co-expressed (significantly different from vehicle): 44.4 ΔBRET.sec
  Response, arrestin translocation to the plasma membrane (BRET, AUC of 25 min); 10 μM AEA (no significant response): 6.9 ΔBRET.sec
  Response, arrestin translocation to the plasma membrane (BRET, AUC of 25 min); 10 μM BAY (no significant response): 0.7 ΔBRET.sec
  Response, arrestin translocation to the plasma membrane (BRET, AUC of 25 min); 10 μM THC (no significant response): 6.5 ΔBRET.sec
  Response, arrestin translocation to the plasma membrane (BRET, AUC of 25 min); 10 μM WIN55,212-2 (significantly different from vehicle): 48.5 ΔBRET.sec
  Response, arrestin translocation to the plasma membrane (BRET, AUC of 25 min); 31.6 μM 2-AG (significantly different from vehicle): 33.7 ΔBRET.sec
  Response, arrestin translocation to the plasma membrane (BRET, AUC of 25 min); 31.6 μM 2-AG; GRK2 co-expressed (significantly different from vehicle): 49.1 ΔBRET.sec
[6]
  Response, arrestin translocation to the plasma membrane (BRET, AUC of 25 min); 1 μM CP55,940 (significantly different from vehicle): 21.5 ΔBRET.sec
  Response, arrestin translocation to the plasma membrane (BRET, AUC of 25 min); 1 μM CP55,940; GRK2 co-expressed (significantly different from vehicle): 29 ΔBRET.sec
  Response, arrestin translocation to the plasma membrane (BRET, AUC of 25 min); 10 μM JWH-015 (not significantly different from vehicle): 14.2 ΔBRET.sec
  Response, arrestin translocation to the plasma membrane (BRET, AUC of 25 min); 10 μM JWH-133 (not significantly different from vehicle): 7.4 ΔBRET.sec
  Response, arrestin translocation to the plasma membrane (BRET, AUC of 25 min); 10 μM THC (not significantly different from vehicle): 10.8 ΔBRET.sec
  Response, arrestin translocation to the plasma membrane (BRET, AUC of 25 min); 10 μM WIN55,212-2 (significantly different from vehicle): 22.2 ΔBRET.sec
  Response, arrestin translocation to the plasma membrane (BRET, AUC of 25 min); 31.6 μM 2-AG (not significantly different from vehicle): 14.2 ΔBRET.sec
  Response, arrestin translocation to the plasma membrane (BRET, AUC of 25 min); 31.6 μM 2-AG; GRK2 co-expressed (significantly different from vehicle): 17.5 ΔBRET.sec

## human β-arrestin-2 (Rluc8-hβ-arrestin-2-Sp1) (from UniProt P32121 1-409) (natural protein)
[7]
  Emax, arrestin translocation to the plasma membrane (BRET, AUC of 25 min); agonist AVP: 306 ΔBRET.sec
[8]
  Emax, arrestin translocation to the plasma membrane (BRET, AUC of 25 min); agonist 2-AG: 236 ΔBRET.sec
  Emax, arrestin translocation to the plasma membrane (BRET, AUC of 25 min); agonist 2-AG; GRK2 co-expressed: 150 ΔBRET.sec
  Emax, arrestin translocation to the plasma membrane (BRET, AUC of 25 min); agonist AEA: 47.9 ΔBRET.sec
  Emax, arrestin translocation to the plasma membrane (BRET, AUC of 25 min); agonist CP55,940: 83.7 ΔBRET.sec
  Emax, arrestin translocation to the plasma membrane (BRET, AUC of 25 min); agonist CP55,940; GRK2 co-expressed: 120 ΔBRET.sec
  Emax, arrestin translocation to the plasma membrane (BRET, AUC of 25 min); agonist WIN55,212-2: 164 ΔBRET.sec
  efficacy at 10 μM BAY (NA, not active; no curve could be fitted), arrestin translocation to the plasma membrane (BRET, AUC of 25 min): 15.3 ΔBRET.sec
  efficacy at 10 μM THC (NA, not active; no curve could be fitted), arrestin translocation to the plasma membrane (BRET, AUC of 25 min): 5.9 ΔBRET.sec
[9]
  Emax, arrestin translocation to the plasma membrane (BRET, AUC of 25 min); agonist 2-AG: 31.3 ΔBRET.sec
  Emax, arrestin translocation to the plasma membrane (BRET, AUC of 25 min); agonist 2-AG; GRK2 co-expressed: 68.7 ΔBRET.sec
  Emax, arrestin translocation to the plasma membrane (BRET, AUC of 25 min); agonist CP55,940: 37.4 ΔBRET.sec
  Emax, arrestin translocation to the plasma membrane (BRET, AUC of 25 min); agonist CP55,940; GRK2 co-expressed: 70.4 ΔBRET.sec
  Emax, arrestin translocation to the plasma membrane (BRET, AUC of 25 min); agonist JWH-015: 34 ΔBRET.sec
  Emax, arrestin translocation to the plasma membrane (BRET, AUC of 25 min); agonist JWH-133: 37.8 ΔBRET.sec
  Emax, arrestin translocation to the plasma membrane (BRET, AUC of 25 min); agonist WIN55,212-2: 24.4 ΔBRET.sec
  efficacy at 10 μM THC (NA, not active; no curve could be fitted), arrestin translocation to the plasma membrane (BRET, AUC of 25 min): -3.8 ΔBRET.sec

## bovine β-arrestin-2 (Rluc8-bβ-arrestin-2-Sp1) (from UniProt P32120 1-420) (natural protein)
[10]
  Emax, arrestin translocation to the plasma membrane (BRET, AUC of 25 min); agonist dopamine: 40.6 ΔBRET.sec
  Emax, arrestin translocation to the plasma membrane (BRET, AUC of 25 min); agonist dopamine; GRK2 co-expressed: 129 ΔBRET.sec
[11]
  Emax, arrestin translocation to the plasma membrane (BRET, AUC of 25 min); agonist AVP: 194 ΔBRET.sec
[12]
  Emax, arrestin translocation to the plasma membrane (BRET, AUC of 25 min); agonist 2-AG: 116 ΔBRET.sec
  Emax, arrestin translocation to the plasma membrane (BRET, AUC of 25 min); agonist 2-AG; GRK2 co-expressed: 91.7 ΔBRET.sec
  Emax, arrestin translocation to the plasma membrane (BRET, AUC of 25 min); agonist AEA: 32.1 ΔBRET.sec
  Emax, arrestin translocation to the plasma membrane (BRET, AUC of 25 min); agonist CP55,940: 35.2 ΔBRET.sec
  Emax, arrestin translocation to the plasma membrane (BRET, AUC of 25 min); agonist CP55,940; GRK2 co-expressed: 58.9 ΔBRET.sec
  Emax, arrestin translocation to the plasma membrane (BRET, AUC of 25 min); agonist WIN55,212-2: 72 ΔBRET.sec
  efficacy at 10 μM BAY (NA, not active; no curve could be fitted), arrestin translocation to the plasma membrane (BRET, AUC of 25 min): 2.4 ΔBRET.sec
  efficacy at 10 μM THC (NA, not active; no curve could be fitted), arrestin translocation to the plasma membrane (BRET, AUC of 25 min): 0.54 ΔBRET.sec
[13]
  Emax, arrestin translocation to the plasma membrane (BRET, AUC of 25 min); agonist 2-AG: 45 ΔBRET.sec
  Emax, arrestin translocation to the plasma membrane (BRET, AUC of 25 min); agonist 2-AG; GRK2 co-expressed: 75.7 ΔBRET.sec
  Emax, arrestin translocation to the plasma membrane (BRET, AUC of 25 min); agonist CP55,940: 45.4 ΔBRET.sec
  Emax, arrestin translocation to the plasma membrane (BRET, AUC of 25 min); agonist CP55,940; GRK2 co-expressed: 70.9 ΔBRET.sec
  Emax, arrestin translocation to the plasma membrane (BRET, AUC of 25 min); agonist JWH-015: 26.7 ΔBRET.sec
  Emax, arrestin translocation to the plasma membrane (BRET, AUC of 25 min); agonist JWH-133: 49.7 ΔBRET.sec
  Emax, arrestin translocation to the plasma membrane (BRET, AUC of 25 min); agonist WIN55,212-2: 25.6 ΔBRET.sec
  efficacy at 10 μM THC (NA, not active; no curve could be fitted), arrestin translocation to the plasma membrane (BRET, AUC of 25 min): 2 ΔBRET.sec

## human β-arrestin-1 (Rluc8-hβ-arrestin-1-Sp1) (from UniProt P49407 1-418) (natural protein)
[14]
  Response, arrestin translocation to the plasma membrane (BRET, AUC of 25 min); 10 μM dopamine: 17.9 ΔBRET.sec
  Response, arrestin translocation to the plasma membrane (BRET, AUC of 25 min); 10 μM dopamine; GRK2 co-expressed: 86.1 ΔBRET.sec
[15]
  Emax, arrestin translocation to the plasma membrane (BRET, AUC of 25 min); agonist AVP: 246 ΔBRET.sec
[16]
  Response, arrestin translocation to the plasma membrane (BRET, AUC of 25 min); 1 μM CP55,940 (not significantly different from vehicle): 17.6 ΔBRET.sec
  Response, arrestin translocation to the plasma membrane (BRET, AUC of 25 min); 1 μM CP55,940; GRK2 co-expressed (significantly different from vehicle): 28.1 ΔBRET.sec
  Response, arrestin translocation to the plasma membrane (BRET, AUC of 25 min); 10 μM AEA (not significantly different from vehicle): 10 ΔBRET.sec
  Response, arrestin translocation to the plasma membrane (BRET, AUC of 25 min); 10 μM BAY (not significantly different from vehicle): 1.4 ΔBRET.sec
  Response, arrestin translocation to the plasma membrane (BRET, AUC of 25 min); 10 μM THC (not significantly different from vehicle): 16.2 ΔBRET.sec
  Response, arrestin translocation to the plasma membrane (BRET, AUC of 25 min); 10 μM WIN55,212-2 (significantly different from vehicle): 36.2 ΔBRET.sec
  Response, arrestin translocation to the plasma membrane (BRET, AUC of 25 min); 31.6 μM 2-AG (significantly different from vehicle): 51.8 ΔBRET.sec
  Response, arrestin translocation to the plasma membrane (BRET, AUC of 25 min); 31.6 μM 2-AG; GRK2 co-expressed (significantly different from vehicle): 53 ΔBRET.sec
[17]
  Response, arrestin translocation to the plasma membrane (BRET, AUC of 25 min); 1 μM CP55,940 (significantly different from vehicle): 20.5 ΔBRET.sec
  Response, arrestin translocation to the plasma membrane (BRET, AUC of 25 min); 1 μM CP55,940; GRK2 co-expressed (significantly different from vehicle): 22.7 ΔBRET.sec
  Response, arrestin translocation to the plasma membrane (BRET, AUC of 25 min); 10 μM JWH-015 (significantly different from vehicle): 31.2 ΔBRET.sec
  Response, arrestin translocation to the plasma membrane (BRET, AUC of 25 min); 10 μM JWH-133 (not significantly different from vehicle): 4.9 ΔBRET.sec
  Response, arrestin translocation to the plasma membrane (BRET, AUC of 25 min); 10 μM THC (significantly different from vehicle): 14.4 ΔBRET.sec
  Response, arrestin translocation to the plasma membrane (BRET, AUC of 25 min); 10 μM WIN55,212-2 (not significantly different from vehicle): 3.2 ΔBRET.sec
  Response, arrestin translocation to the plasma membrane (BRET, AUC of 25 min); 31.6 μM 2-AG (significantly different from vehicle): 14.7 ΔBRET.sec
  Response, arrestin translocation to the plasma membrane (BRET, AUC of 25 min); 31.6 μM 2-AG; GRK2 co-expressed (significantly different from vehicle): 17.2 ΔBRET.sec
